Patent US20040161776A1 (PSMA DEVELOPMENT, published 2004)

Experiments:
[1] = target: T1, prostate specific membrane antigen (PSMA), full-length human (human, UniProt Q04609 1-750); experiment: cell-based or functional assay
[2] = target: T1, prostate specific membrane antigen …; experiment: cell-based or functional assay; remark: listed apart in the source
[3] = target: T2, recombinant soluble PSMA (rsPSMA) (human, UniProt Q04609 44-750); experiment: Biacore, purified mAb captured, rsPSMA in flow
T2 construct: Oligomeric state of the preparation not specified in the assay concerned; also called secreted rsPSMA; PSMAECTO
T2 sequence (Q04609 44-750): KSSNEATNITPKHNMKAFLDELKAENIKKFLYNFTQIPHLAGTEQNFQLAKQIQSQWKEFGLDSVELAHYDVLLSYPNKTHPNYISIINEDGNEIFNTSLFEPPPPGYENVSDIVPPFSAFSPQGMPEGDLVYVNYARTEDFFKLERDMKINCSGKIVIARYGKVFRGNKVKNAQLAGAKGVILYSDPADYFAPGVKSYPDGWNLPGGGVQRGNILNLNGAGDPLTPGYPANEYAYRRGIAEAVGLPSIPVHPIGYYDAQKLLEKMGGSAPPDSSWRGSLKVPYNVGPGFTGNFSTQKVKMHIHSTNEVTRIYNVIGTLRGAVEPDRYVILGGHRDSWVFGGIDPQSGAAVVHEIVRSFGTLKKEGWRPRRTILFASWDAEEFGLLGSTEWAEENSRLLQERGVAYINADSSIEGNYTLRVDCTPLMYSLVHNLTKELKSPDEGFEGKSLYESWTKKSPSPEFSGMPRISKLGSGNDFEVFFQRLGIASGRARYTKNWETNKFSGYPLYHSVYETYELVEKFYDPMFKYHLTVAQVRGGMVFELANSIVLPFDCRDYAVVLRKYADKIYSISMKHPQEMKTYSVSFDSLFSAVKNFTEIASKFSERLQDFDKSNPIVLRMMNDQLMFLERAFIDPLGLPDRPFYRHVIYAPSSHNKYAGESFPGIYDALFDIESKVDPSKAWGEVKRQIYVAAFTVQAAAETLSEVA
Description: (§1) To determine the kinetics and affinity of the antibodies, the antibodies in crude supernatants, in purified form and in bifunctional chelate modified forms were analyzed using a Biacore 3000 instrument (Biacore Inc., Piscataway, N.J.). Biacore 3000 is a fully automated surface plasmon resonance (SPR)-based biosensor system that is designed to provide real-time kinetic data from assay formats that require no tags or labeling of compounds for biomolecular interactions. It is ideal for screening crude supernatants.
(§2) The streptavidin-coated sensor chips (SA chips, Biacore) were used to capture biotinylated anti-human IgG antibody (Sigma, St. Louis, Mo.). The entire sensor chip surface was conditioned with five injections of conditioning solution (1 M NaCl, 50 mM NaOH) and equilibrated with PBS buffer containing 0.005% polysorbate 20. Two to three thousand resonance units (RU) of biotinylated anti-human IgG antibody (Sigma) were immobilized onto the SA chip followed by an injection of regeneration buffer (glycine-HCl, pH 2.2). […] For each antibody at one concentration, the chip was regenerated and equilibrated. […] Thermodynamic and kinetic rate constants of binding were calculated using the Biacore Evaluation software.

[4] = target: T2, recombinant soluble PSMA (rsPSMA); experiment: Biacore, mAb captured on anti-human IgG, rsPSMA in flow; crude supernatant
Description: as §1, §2

T1 sequence (Q04609 whole entry): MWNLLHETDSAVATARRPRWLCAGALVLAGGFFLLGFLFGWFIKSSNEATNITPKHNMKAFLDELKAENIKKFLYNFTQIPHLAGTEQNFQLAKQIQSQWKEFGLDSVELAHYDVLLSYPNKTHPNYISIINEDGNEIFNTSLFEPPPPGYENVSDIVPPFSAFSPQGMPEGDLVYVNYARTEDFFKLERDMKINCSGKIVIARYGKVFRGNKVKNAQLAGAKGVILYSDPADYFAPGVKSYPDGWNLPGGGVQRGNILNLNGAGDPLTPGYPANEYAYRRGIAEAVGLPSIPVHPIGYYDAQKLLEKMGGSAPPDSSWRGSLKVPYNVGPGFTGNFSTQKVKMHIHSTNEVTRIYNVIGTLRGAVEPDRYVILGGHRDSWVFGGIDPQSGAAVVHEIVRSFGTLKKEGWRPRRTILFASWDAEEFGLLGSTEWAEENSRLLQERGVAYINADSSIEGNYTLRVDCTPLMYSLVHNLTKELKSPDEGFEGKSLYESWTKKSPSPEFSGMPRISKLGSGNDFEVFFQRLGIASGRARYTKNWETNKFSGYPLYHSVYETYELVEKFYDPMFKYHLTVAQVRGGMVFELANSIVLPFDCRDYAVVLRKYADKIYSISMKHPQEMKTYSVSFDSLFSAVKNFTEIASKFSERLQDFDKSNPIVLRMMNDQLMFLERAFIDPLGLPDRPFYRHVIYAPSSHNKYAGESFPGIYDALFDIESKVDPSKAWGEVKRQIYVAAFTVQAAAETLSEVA

B1: 225Ac labeled mAb 026 (antibody, human IgG1, V domains shown)
VH: QVQLVESGGGVVQPGRSLRLSCAASGFTFSNYVMHWVRQAPGKGLEWVAIIWYDGSNKYYADSVKGRFTISRDNSKNTLYLQMNSLRAEDTAVYYCAGGYNWNYEYHYYGMDVWGQGTTVTVSS
VL: DIQMTQSPSSLSASVGDRVTITCRASQGITNYLAWFQQKPGKAPKSLIYAASSLQSGVPSKFSGSGSGTDFSLTISSLQPEDFATYYCQQYNSYPITFGQGTRLEIK
modifications: 225Ac chelated by bifunctional DOTA conjugated to the antibody, sites not stated
IC50, cell survival (Alamar Blue) of C4-2 and LNCaP cells [1]: < 1 nCi/mL | IC50, cell survival of C4-2 cells by 3H thymidine incorporation [1]: 0.12 nCi/mL | selectivity of killing, C4-2 vs PC3 [1]: > 50 fold

B2: 026 (antibody, V domains shown)
VH: B1 VH
VL: B1 VL
PSMA+/PSMA- Ratio of tumor uptake, Mean [2]: 5.55

B3: PSMA 10.3 (antibody, V domains shown)
VH: QEQLVESGGGVVQPGRSLRLSCAASGFTFSTYGMHWVRQAPGKGLEWVAVTWHDGSNKYYADSVKGRFTISRDNSKNTLYLQMNSLRAEDTAVYYCARGGVGATYYYYYGMDVWGQGTTVTVSS
VL: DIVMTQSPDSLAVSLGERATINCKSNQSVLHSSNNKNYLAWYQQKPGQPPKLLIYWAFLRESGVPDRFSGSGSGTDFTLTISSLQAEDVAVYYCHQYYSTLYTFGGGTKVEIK
notes: human antibody from XenoMouse
Kd [3]: 0.217 nM | koff [4]: 0.000363 s⁻¹

B4: 006 (antibody, V domains shown)
VH: QVQLVESGGGVVQPGRSLRLSCAASGFAFSRYGMHWVRQAPGKGLEWVAVIWYDGSNKYYADSVKGRFTISRDNSKNTQYLQMNSLRAEDTAVYYCARGGDFLYYYYYGMDVWGQGTTVTVSS
VL: DIQMTQSPSSLSASVGDRVTITCRASQGISNYLAWYQQKTGKVPKFLIYEASTLQSGVPSRFSGGGSGTDFTLTISSLQPEDVATYYCQNYNSAPFTFGPGTKVDIK
PSMA+/PSMA- Ratio of tumor uptake, Mean [2]: 4.27
